Tests used:
[1] = biological target: S. mutans CLC^F F-/H+ antiporter encoded by ORF 1289 (SMU.1289) (Streptococcus mutans UA159); assay: cross-linking
[2] = biological target: S. mutans CLC^F homologue encoded by ORF 1290 (SMU.1290) (Streptococcus mutans UA159); assay: cross-linking

Substance | stoichiometry N [1] | stoichiometry N [2]
S. mutans CLC^F F-/H+ antiporter encoded by ORF 1289 (SMU.1289) (natural protein) | 2 | –
S. mutans CLC^F homologue encoded by ORF 1290 (SMU.1290) (natural protein) | – | 2

From publication PMC10827179
